Source: patent US8129557B2, “Phosphonic acid diester derivative and method for producing thereof” (priority 2005, dated 2012)

Tested on: T1, Cc1cc(=O)oc2cc(NC(=O)CC[C@H](N)C(=O)O)ccc12
T1 construct: purchased Asahi Kasei Co., Ltd. HC-GTP (lot 603AA)
Test: Hydrolytic assay of human GGT (Michaelis constant of substrate)
Format: biochemical
Settings: other: human GGT, substrate concentration 4.0 μM
Method: In the experiment, at first, Michaelis constants (Km) for 7-(γ-L-glutamylamino)-4-methylcoumarin as substrate were measured by a fluorescence method [Smith, G. D.; Ding, J. L.; Peters, T. J. Anal. Biochem. 100, 136-139 (1979)] for the hydrolytic activities of E-coli GGT and human GGT.
In the hydrolytic assay of human GGT, the measurement was carried out in the same manner as that in the hydrolytic assay of E-coli GGT, except that the substrate concentration was changed to […] and therefore, the explanation of the common portions was omitted.

Sequence of human GGT (Homo sapiens) (chain, as listed by the source): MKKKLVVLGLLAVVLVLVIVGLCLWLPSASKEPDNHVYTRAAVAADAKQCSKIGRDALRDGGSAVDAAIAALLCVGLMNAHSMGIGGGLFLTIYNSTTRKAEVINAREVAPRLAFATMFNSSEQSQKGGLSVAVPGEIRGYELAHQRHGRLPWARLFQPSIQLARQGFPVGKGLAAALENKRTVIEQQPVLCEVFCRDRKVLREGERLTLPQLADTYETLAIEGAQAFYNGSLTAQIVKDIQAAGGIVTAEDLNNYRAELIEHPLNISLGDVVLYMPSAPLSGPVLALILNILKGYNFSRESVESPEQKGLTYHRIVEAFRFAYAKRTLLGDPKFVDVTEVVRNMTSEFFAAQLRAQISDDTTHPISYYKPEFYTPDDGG
Sequence of human GGT (Homo sapiens) (chain, as listed by the source): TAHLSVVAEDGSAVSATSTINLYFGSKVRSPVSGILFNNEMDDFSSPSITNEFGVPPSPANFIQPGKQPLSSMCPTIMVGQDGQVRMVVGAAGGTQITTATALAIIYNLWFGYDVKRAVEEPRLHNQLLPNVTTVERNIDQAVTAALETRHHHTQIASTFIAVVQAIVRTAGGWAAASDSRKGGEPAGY

With human GGT (Homo sapiens) the Km was 12.6 µM.
